These results are taken from patent publication US9150630B2, “Use of Idbf” (Industry-Academic Cooperation Foundation, Yonsei University, priority 2008, dated 2015).

Primed or numbered codes have the meaning given here. Ends that are not written are not given here. FITC′ = not defined here

The test system of data set [1] is MC3T3E1 cells (osteoblast differentiation). The data set is described as follows: RT-PCR of osteoblast differentiation markers in MC3T3E1 cells. The format is cell-based. To be noted: 10 μM PTD-DBMP or 100 ng/ml Wnt3a, 2 and 4 days, FIG. 25. How it is done:
To study the effect of PTD-DBMP on osteoblast differentiation, 100 ng/ml Wnt3a, or 10 μM PTD-DBMP was treated on MC3T3E1 cells. The cells were harvested after 2, and 4 days later, and then subjected into RT-PCR to monitor the amounts of ALP, Fgf18, RANKL, and HPRT mRNAs. The mRNA amounts of osteoblast differentiation markers (ALP, Fgf18, RANKL) were increased by PTD-DBMP treatment, as well as by Wnt3a treatment (FIG. 25).

Data set [2] has as its system Wnt/β-catenin pathway. The data set is described as follows: pTOPFLASH/pFOPFLASH luciferase reporter assay in MC3T3E1 cells. It is filed as cell-based. The conditions noted are these: 5 μM PTD-DBMP or 100 ng/ml Wnt3a, 12 hours, FIG. 24. How it is done:
To investigate the effect of PTD-DBMP treatment on Wnt/β-catenin pathway of MC3T3E1 cells, 0.5 μg of pTOPFLASH or pFOPFLASH with 50 ng of pCMV-β-Gal was transfected into the cells. After 12 hours, the transfected cells were treated with 100 ng/ml Wnt3a, or 5 μM PTD-DBMP, and then incubated for 12 hours. Then the cells were washed with PBS, and then lysed in Lysis Buffer (Promega). The cell lysates were mixed with Luciferase Substrate (Promega) to monitor the luciferase activities.
(In a reporter assay the amount or activity of a reporter protein is the signal.)

In data set [3] the test system is Wnt/β-catenin pathway in MC3T3E1 cells. Nature of the data set: Immunocytochemistry of PTD-DBMP treated MC3T3E1 cells. It is filed as cell-based. The conditions noted are these: 5 μM or 10 μM, 12 hours, FIG. 23. How it is done: PTD-DBMP (SEQ ID NO: 26) was treated into MC3T3E1 cells, and then the introduction and effect of PTD-DBMP were monitored by immunocytochemistry analyses. MC3T3E1 cells were incubated on gelatin-coated glasses for 1 day, and then 5 μM or 10 μM PTD-DBMP were treated on the incubated cells for 12 hours. The PTD-DBMP-treated cells were washed with PBS, and then fixed using a fixative solution (99% methanol and 1% formaldehyde). The fixed cells were permeabilized with 0.2% saponin solution, and then incubated with anti-β-catenin antibody (home-made; 1:100). The cells were incubated with Alexafluor 488 conjugated secondary antibody, and then the nucleus of cells were counterstained with DAPI.

The next data set relates to Wnt/β-catenin signaling. Nature of the data set: β-catenin immunoblotting of PTD-DBMP treated HEK293 cells. To be noted: 1 μM or 4 μM PTD-DBMP, 12 hours, FIG. 22. The format is cell-based, human. How it is done: To investigate the effect of PTD-DBMP in the cells, HEK293 cells were incubated with 1 μM or 4 μM PTD-DBMP for 12 hours, and then the cell lysates were subjected into immunoblotting using anti-β-catenin, and anti-α-tubulin antibodies.

Another data set concerns HEK293 cells. Nature of the data set: Introduction of FITC-labelled PTD-DBMP into HEK293 cells (fluorescence microscopy). The format is cell-based, human. The conditions noted are these: 1 μM or 4 μM peptide, 3 hours, FIG. 21. How it is done: To confirm the introduction of two PTD-DBMP into cells, HEK293 cells were seeded and incubated on gelatin-coated glasses for one day, and then 1 μM or 4 μM peptide were treated on the cells. After 3 hours, the cells were washed with PBS, and then fixed using fixative solution (99% methanol and 1% formaldehyde). Nucleus of cells were counterstained using DAPI, and the cells were observed using ECLIPSE TE2000-U microscope.

In data set [4] the test system is Wnt/β-catenin pathway and osteoblast differentiation in MC3T3E1 cells. The data set is described as follows: Idbf overexpression and Wnt3a treatment in MC3T3E1 cells, RT-PCR. The format is cell-based. To be noted: FIG. 17C; for ALP and Fgf18 mRNA: 100 ng/ml Wnt3a 12 hours, or ascorbic acid and β-glycerol-phosphate 2 days. How it is done:
Idbf was overexpressed in MC3T3E1 cells to investigate the function of Idbf in Wnt/β-catenin pathway and osteoblast differentiation. MC3T3E1 cells were transfected with pcDNA3.1 or pcDNA3.1-Idbf-Myc, and then transfected cells were incubated in α-MEM media containing 100 ng/ml Wnt3a for 12 hours or in α-MEM containing 50 mg/l ascorbic acid and 10 mM […] for 2 days. Wnt3a treatment results in mRNA increments of ALP and Fgf18, which were more significant than ascorbic acid and β-glycerol-phosphate treatment (FIG. 17C). […] However, the common target genes of Wnt/β-catenin pathway, cyclin D and c-myc were not regulated by Wnt3a or ascorbic acid and β-glycerol-phosphate treatment (FIG. 17C).

In data set [5] the test system is Wnt/β-catenin pathway. Nature of the data set: Wnt3a treatment and Idbf overexpression in HEK293 cells (reporter assay, Idbf-Dvl-1 binding). It is filed as cell-based, human. To be noted: for effect on Wnt/β-catenin pathway in HEK293 cells: 100 ng/ml Wnt3a 12 hours or 0.5 μg plasmid, FIG. 19. How it is done: Function of Idbf in Wnt/β-catenin pathway was also studied in HEK293 cells, which is a established human embryonic kidney cell-line. HEK293 cells were transfected with 0.5 μg pcDNA3.1 or pcDNA3.1-Idbf-Myc. For reporter assay, 0.5 μg pTOPFLASH or pFOPFLASH with 50 ng pCMV-β-Gal was co-transfected. The transfeced cells were incubated in α-MEM with or without 100 ng/ml Wnt3a for 12 hours. […] The enhancement of Idbf-Dvl-1 binding by Wnt3a treatment was also not observed (FIG. 20).

The subject of the next data set is β-catenin. The data set is described as follows: Idbf overexpression or knock-down in HEK293 cells: β-catenin immunoblot and TOPFLASH reporter. The format is cell-based, human. The conditions noted are these: FIG. 5; for transcriptional activity of β-catenin: pTOPFLASH/pFOPFLASH luciferase; for protein level of β-catenin: transfection, immunoblotting. How it is done:
0.9 kb PCR product was restricted with XbaI and BamHI, and subcloned into a pcDNA3.1/myc His(−) vector (Invitrogen) (pcDNA3.1-Idbf-Myc). Idbf overexpression was performed by transfection of pcDNA3.1-Idbf-Myc into HEK293 cells using Lipofectamine plus reagent (Invitrogen) as the manufacturers' instruments.
Idbf knock-down was performed by transfection of Idbf siRNA into HEK293 cells using Lipofectamine plus reagent (Invitrogen) as the manufacturers' instruments. Idbf siRNA was synthesized using Silence™ siRNA Construction Kit (Ambion). To elevate the efficiency of knock-down, the mixture of two kinds of siRNAs, which are targeting different site of Idbf mRNA, were used.
For immunoblotting, cells were harvested, and lysed in RIPA buffer (50 mM Tris pH 7.5, 150 mM NaCl, 1 mM EDTA, and 1% Triton X-100). All chemicals were purchased from Sigma-Aldrich.
To detect proteins, whole cell lysates or immunoprecipitants were subjected into immunoblotting using anti-β-catenin, anti-Myc, or anti-α-tubulin antibodies. To monitor the transcriptional activity of β-catenin, 0.5 μg of pTOPFLASH or pFOPFLASH (kind gill from Dr. B. Vogelstein and Dr. K. Kinzler in Johns Hopkins Oncology Center, Baltimore, Md.) with 50 ng of pCMV-β-Gal was transfected into HEK293 cells. The luciferease activities, which indicate the transcriptional activity of β-catenin, were normalized by β-galactosidase activities, which show the efficiency of transfection. […] Oppositely, the protein level of β-catenin and its transcriptional activity were increased by Idbf knock-down (FIG. 5B). Error bars in FIG. 5 indicates standard deviation. WCL and IP are abbreviations of whole cell lysate and immunoprecipitation, respectively.
Background: Immunoblotting shows a protein as a band on a membrane.

The next data set concerns the target T1, Dvl-1 (Mus musculus, UniProt P51141).
T1 construct: endogenous in cells; host or cells: MC3T3E1 osteoblasts
T1 sequence (P51141 1-695): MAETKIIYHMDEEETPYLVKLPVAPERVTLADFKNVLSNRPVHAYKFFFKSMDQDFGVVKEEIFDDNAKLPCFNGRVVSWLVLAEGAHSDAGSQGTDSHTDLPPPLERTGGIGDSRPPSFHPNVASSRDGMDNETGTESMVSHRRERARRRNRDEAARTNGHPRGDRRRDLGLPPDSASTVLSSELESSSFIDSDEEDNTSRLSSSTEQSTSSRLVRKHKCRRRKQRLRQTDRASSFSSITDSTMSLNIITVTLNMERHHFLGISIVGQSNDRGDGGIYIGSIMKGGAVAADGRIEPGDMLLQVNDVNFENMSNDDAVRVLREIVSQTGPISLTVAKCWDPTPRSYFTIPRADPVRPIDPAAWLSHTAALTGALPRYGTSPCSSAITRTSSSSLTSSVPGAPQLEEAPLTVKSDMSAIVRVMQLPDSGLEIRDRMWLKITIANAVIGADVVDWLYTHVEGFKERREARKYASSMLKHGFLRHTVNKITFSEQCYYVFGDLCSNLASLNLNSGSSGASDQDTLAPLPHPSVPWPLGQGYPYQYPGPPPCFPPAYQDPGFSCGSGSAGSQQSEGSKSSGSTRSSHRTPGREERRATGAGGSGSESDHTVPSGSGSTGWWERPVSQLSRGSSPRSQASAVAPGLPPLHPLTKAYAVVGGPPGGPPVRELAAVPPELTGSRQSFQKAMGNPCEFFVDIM
The data set is described as follows: Idbf-Dvl-1 binding by immunoprecipitation with anti-Idbf antibody. The conditions noted are these: with or without Wnt3a, FIG. 18B (MC3T3E1 osteoblast). From the text:
To investigate the importance of Idbf-Dvl-1 binding in Idbf function, a mutant of Idbf, in which Dvl binding minimal peptide (DBMP; RKTGHQICKFRKC, SEQ ID NO: 4) was removed, was produced (pcDNA3.1-Idbf-ΔDBMP-Myc).
To monitor Idbf-Dvl-1 binding, cell lysates were subjected into immunoprecipitation using anti-Idbf antibody. Whole cell lysates were subjected into immunoblotting to detect the amounts of proteins, including β-catenin, α-tubulin, and Dvl-1.

Regarding “PTD-DBMP: PTD and glycine linker on the amino terminus of DBMP, FITC on the carboxyl terminus; two peptides in section 7, SEQ ID NO: 26 in section 8 (RRRRRRRRGGGGRKTGHQICKFRKCK-{FITC′}; cysteine pairing not given here)”, the “mRNA amounts of osteoblast differentiation markers (ALP, Fgf18, RANKL)” value in data set [1] is on record as “increased”. Moreover, in the data set on Wnt/β-catenin pathway [2], the “activation of Wnt/β-catenin pathway (luciferase activity normalized by β-galactosidase)” value is “as significant as the activation by Wnt3a treatment”. Also, in data set [3], the “activation of Wnt/β-catenin pathway (β-catenin in nucleus)” value was “accumulation of β-catenin (red) in nucleus of the cells”; the “introduction of peptide into cells (green fluorescence by FITC on nucleus and cytosol)” value is on record as “successfully introduced into the cells”. For the same molecule, the “amount of β-catenin” value in the data set with Wnt/β-catenin signaling is listed as “increased”. In addition, in the data set on HEK293 cells, the “introduction of peptide into cells (green fluorescence in nucleus and cytosol)” value was “successfully introduced into the cells”.

B1: Wnt3a: Wnt ligand used at 100 ng/ml to activate the Wnt/β-catenin signaling pathway (protein, UniProt P56704 19-352, looked up)
Protein Wnt-3a: SYPIWWSLAVGPQYSSLGSQPILCASIPGLVPKQLRFCRNYVEIMPSVAEGIKIGIQECQHQFRGRRWNCTTVHDSLAIFGPVLDKATRESAFVHAIASAGVAFAVTRSCAEGTAAICGCSSRHQGSPGKGWKWGGCSEDIEFGGMVSREFADARENRPDARSAMNRHNNEAGRQAIASHMHLKCKCHGLSGSCEVKTCWWSQPDFRAIGDFLKDKYDSASEMVVEKHRESRGWVETLRPRYTYFKVPTERDLVYYEASPNFCEPNPETGSFGTRDRTCNVSSHGIDGCDLLCCGRGHNARAERRREKCRCVFHWCCYVSCQECTRVYDVHTCK
As for B1, in [4] (100 ng/ml Wnt3a 12 hours), the “cyclin D and c-myc (common target genes of Wnt/β-catenin pathway)” value is given as “not regulated”. Further, in data set [4], the “ALP and Fgf18 mRNA” value was “increments”. Moreover, the “mRNA amounts of osteoblast differentiation markers (ALP, Fgf18, RANKL)” value in data set [1] was “increased”. Further, the “activation of Wnt/β-catenin pathway (luciferase activity normalized by β-galactosidase)” value in the data set with Wnt/β-catenin pathway [2] is recorded as “activation”. The “effect on Wnt/β-catenin pathway in HEK293 cells” value in the data set with Wnt/β-catenin pathway [5] is “very marginal”. Also, in the data set on Wnt/β-catenin pathway [5] (Wnt3a treatment, FIG. 20), the “enhancement of Idbf-Dvl-1 binding” value is reported as “not observed”.

B2: Idbf siRNA: mixture of two siRNAs targeting different sites of Idbf mRNA (SEQ ID NO: 12-15) (nucleic acid)
chain 1: UUGUAGGAAUCGAAAGACUUU
chain 2: AGUCUUUCGAUUCCUACAAUU
chain 3: GCAGUUUGCGCAGUCCACAUU
chain 4: UGUGGACUGCGCAAACUGCUU
modifications: listed as RNA, chemistry not given here
B2: in the data set on β-catenin, the “transcriptional activity of β-catenin” value was “increased” and the “protein level of β-catenin” value is on record as “increased”.

B3: Idbf: novel Dvl-binding protein (SEQ ID NO: 1), overexpressed by transfection of pcDNA3.1-Idbf-Myc (protein, listed as Homo sapiens)
chain: MSSLGGGSQDAGGSSSSSTNGSGGSGSSGPKAGAADKSAVVAAAAPASVADDTPPPERRNKSGIISEPLNKSLRRSRPLSHYSSFGSSGGSGGGSMMGGESADKATAAAAAASLLANGHDLAAAMAVDKSNPTSKHKSGAVASLLSKAERATELAAEGQLTLQQFAQSTEMLKRVVQEHLPLMSEAGAGLPDMEAVAGAEALNGQSDFPYLGAFPINPGLFIMTPAGVFLAESALHMAGLAEYPMQGELASAISSGKKKRKRCGMCAPCRRRINCEQCSSCRNRKTGHQICKFRKCEELKKKPSAALEKVMLPTGAAFRWFQ
modifications: Myc tag
For the molecule B3, the “ALP and Fgf18 mRNA” value in [4] is “suppressed increment”. In addition, in the data set with β-catenin, the “transcriptional activity of β-catenin” value is “reduced” and the “protein level of β-catenin” value is recorded as “reduced”. The “binding to Dvl-1” value with Dvl-1 is reported as “binds to Dvl-1 in Wnt3a-dependent manner”. The “effect on Wnt/β-catenin pathway in HEK293 cells” value with Wnt/β-catenin pathway [5] is recorded as “very marginal”.
